According to PMC3289641:

Target: GST-fused core106 (HCV core, residues 1-106) (hepatitis C virus (genotype not stated))
Experiment: AlphaScreen or HTRF; GST-core106 and Flag-core106 at 150 nM each; glutathione donor beads and anti-Flag acceptor beads 20 ug/ml; room temperature; protein buffer 100 mM HEPES pH 7.5, 1 mM EDTA, 5 mM DTT, 0.1% CHAPS, 10% glycerol; untagged core106 added as reference inhibitor

With “HCV core106 (1-106 residues), untagged core106 domain (domain or fragment)” the percent inhibition of core dimerization was 91%.
